Assay: yeast display, Sf9 membrane polyspecificity reagent, FACS + sequencing; frameworks hold sequencing errors
Outline: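 Genes from sorted yeast were amplified by colony PCR, read by MiSeq 2 × 250 sequencing and filtered on CDR length. These cells carried a synthetic nanobody library in Saccharomyces cerevisiae BJ5465 and were sorted by FACS into low and high (top ~1%) gates on anti-HA and streptavidin fluorescence. Polyreactivity is labelled according to the gate of origin.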

Row | Sequence | polyreactivity (PSR sort gate)
1 | QVQLVESGGGLVQAGGSLRLSCAASGSIFIQYDMGWYRQAPGKERELVATIRSCDSTTYADSVKGRFTISRDNAKNTVFLQVNSLKPEDTAVYYCAKDYRFDYDYDYWGQGTQVTVSS | low polyreactivity
2 | QVQLVESGGGLVQAGGSLRLSCAASGSIFIRNAMGWYRQAPGKERELVAAITSGGNTYYADSVKGRFTISRDNAKNTVYLQMNSLKPEDTAVYYCNAGRYYRHDYWGQGTQVTVSS | low polyreactivity
3 | QVQLVESGGGLVQAGGSLRLSCAASGSIFIRYAMGWYRQAPGKERELVAAITRSGGSTYYADSVKGRFTISRDNAKNTVYLQMNSLKPEDTAVYYCNVLLRRNGYFARGDYWGQGTQVTVSS | high polyreactivity
4 | QVQLVESGGGLVQAGGSLRLSCAASGSIFISYAMGWYRQAPGKERELVAAISSGGSTNYADSVKGRFTISRDNAKNTVYLQMNSLKPEDTAVYYCAADGWLWSFTGDGWWFVYWGQGTQVTVSS | low polyreactivity
5 | QVQLVESGGGLVQAGGSLRLSCAASGSIFISYAMGWYRQAPGKERELVAAITSGGRTNYADSVKGRFTISRDNAKNTVYLQMNSLKPEDTAVYYCAKRQSHSRKYDYWGQGTQVTVSS | low polyreactivity
6 | QVQLVESGGGLVQAGGSLRLSCAASGSIFIVNVMGWYRQAPGKERELVAGITTNGGITYYADSVKGRFTISRDNAKNTVYLQMNSLKPEDTAVYYCATRSASPSSIEMDYWGQGTQVTVSS | low polyreactivity
7 | QVQLVESGGGLVQAGGSLRLSCAASGSIFIWYAMGWYRQAPGKERELVATITSSGSTNYADSVKGRFTISRDNAKNTVYLQMNSLKPEDTAVYYCAKRGPLRHYSWGQGTQVTVSS | low polyreactivity
8 | QVQLVESGGGLVQAGGSLRLSCAASGSIFIYNAMGWYRQAPGKERELVAAISSSGGSTYYADSVKGRFTISRDNAKNTVYLQMNSLKPVDTAVYYCAARTYYVRGLGGRPGMDYWGQGTQVTVSS | low polyreactivity
9 | QVQLVESGGGLVQAGGSLRLSCAASGSIFIYYAMGWYRHAPGKERELDAAISNGGSTNYADSVKGRFTISRDNGKNTVYLQLNRLKPEDTAVYYCNARLERTPSLYLYGSWGQGTQVTVSS | low polyreactivity
10 | QVQLVESGGGLVQAGGSLRLSCAASGSIFIYYAMGWYRQAPGKEREFVAAISYSDGDTYYADSVKGRFTISRDNAKNTVYLQMNSLKPEDTAVYYCAAEVPQYYDVGWEDHWGQGTQVTVSS | high polyreactivity
11 | QVQLVESGGGLVQAGGSLRLSCAASGSIFIYYAMGWYRQAPGKERELVAAINTGGTTYYADSVKGRFTISRDNAKNTVYLQMNSLKPEDTAVYYCAKYIAYYGYVPSPWDHPGDDYWGQGTQVTVSS | low polyreactivity
12 | QVQLVESGGGLVQAGGSLRLSCAASGSIFIYYAMGWYRQAPGKERELVAAISFSGARTYYADSVKGRFTISRDNAKNNVSLQMNSLKPEDTAVYYCNVEIGTGDYDYWGQGTQVTVSS | low polyreactivity
13 | QVQLVESGGGLVQAGGSLRLSCAASGSIFKANTMGWSRQAPGKERELVAAISGSGGRTRYADSVRGRFTISRDNAKNTVYLQMNSLKPDVTAVYYCAATDRGGYYYWGQGTQVTVSS | high polyreactivity
14 | QVQLVESGGGLVQAGGSLRLSCAASGSIFKAYDMGWYRPAPGKERELVAGISSSDSTYYADSVKGRFSISRDNAKNTVYLQLNSLKPEDTAVYYCAADPVFAAAYIHLYEYWGQGTQVTVSS | low polyreactivity
15 | QVQLVESGGGLVQAGGSLRLSCAASGSIFKENAMGWYRQAPGKERELVAAITSSGGNTYYADSVKGRFTISRDHAKNTVYIQMNSLKPEDTAVYYCNAGVPVRSTTTDGYWGQGTQVNVSS | high polyreactivity
16 | QVQLVESGGGLVQAGGSLRLSCAASGSIFKEYAMGWYRQAPGKERELVATISWSGGSTYYADSVKGRFTISRDNAKNTVYLQMNSLKPEDTAVYYCNKSTPWWYVVRYDYWGQGTQVTVSS | high polyreactivity
17 | QVQLVESGGGLVQAGGSLRLSCAASGSIFKHNDMGWYRQAPGKERELVAAISRSGGATYYAHSVKGRFTISRDNAKNTVYLQMNSLKPEDTAVYYCNAGRRTARYGYWGQGTQVTVSS | high polyreactivity
18 | QVQLVESGGGLVQAGGSLRLSCAASGSIFKKYAMGWYRQAPGKERELVAAISKSGGSTYYADSVKGRFTISRDNAKNTVYLQMNSLKPEDTAVYYCAAAAGGSAYWDYDYWGQGTQVTVSS | low polyreactivity
19 | QVQLVESGGGLVQAGGSLRLSCAASGSIFKLNAMGWYRQAPGKERELVAAISRGGRKYYADSVKGRFTISRDNAKNTVYLQMNSLKPEDTAVYYCAADASSQIWYYPRDDYWGQGTQVTVSS | low polyreactivity
20 | QVQLVESGGGLVQAGGSLRLSCAASGSIFKRNAMGWYRQAPGKERELVASITWRGGRTYYADSVKGRFTISRDNAKNTVYLQMNILKPEDTAVYYCATTQYTSHYDAYGYWGQGTQVTVSS | high polyreactivity
21 | QVQLVESGGGLVQAGGSLRLSCAASGSIFKRNAMGWYRQAPGKERQLVASISWSGSRTYYADSVKGRFTISRDNAKNTVYLQMISLKPEDTAVYYCARRIYGGHPSQSTQGDFYYWGQGTQVTVSS | high polyreactivity
22 | QVQLVESGGGLVQAGGSLRLSCAASGSIFKRNVMGWYRQAPGKERELVAAITWSGASTYYADSVKGRFTISRDNAKITVYLQMNSLKPEDTAVYYCAARGPSRRRDGSDYWGQGTQVTVSS | high polyreactivity

Row | Sequence | polyreactivity (PSR sort gate)
23 | QVQLVESGGGLVQAGGSLRLSCAASGSIFKSNAMGWYRQAPGKERELVAGISWGGGSTYYADSVKGRFTISRDNAKNTVYLQMNSLKPEDTAVYYCAAYVYYRPSALAVTGDYYWGQGTQVTVSS | low polyreactivity
24 | QVQLVESGGGLVQAGGSLRLSCAASGSIFKSYAMGLYRQAPGKEREFVASITKSGGTTYYADSVKGRFTISRDNAKNTVYLQMNSLKPEDTAVYYCAADWYRSSWTYNYWGQGTQVTVSS | low polyreactivity
25 | QVQLVESGGGLVQAGGSLRLSCAASGSIFKSYAMGWYRQAPGKERELVAAISWSGTSTYYADSVKGRFTISRDHAKNTVYLQMNSLKPEDTAVYYCAASGDYGEYGYWGQGTQVTVSS | low polyreactivity
26 | QVQLVESGGGLVQAGGSLRLSCAASGSIFKSYAMGWYRQAPGKERELVAAITYRGGSTYYADSVKGRFTISRDNAKNTVYLQMNSLKPEDTAVYYCAKDQHRYYQVWGDYWGQGTQVTVSS | high polyreactivity
27 | QVQLVESGGGLVQAGGSLRLSCAASGSIFKSYAMGWYRQAPGKERELVAVISDSGSTYYADSVKGRFTISRDNAKNTVYLQMNSLKPEDTAVYYCRCRGRRNEYWGQGTQVTVSS | high polyreactivity
28 | QVQLVESGGGLVQAGGSLRLSCAASGSIFKTNAMGWYRQAPGKERELVAGISNGGSTNYADSVKGRFTISRDNAKNTVYLQMNSLKPEDTAVYYCAKKGYASRYFIYDYWGQGTQVTVSS | low polyreactivity
29 | QVQLVESGGGLVQAGGSLRLSCAASGSIFKTYAMGWYRQAPGKERELVAAITSSGGSTYYADSVKGRFTISRDNAKNTVYLQMNSLKPEDTAVYYCNARYWGYWGDHYDYWGQGTQVTVSS | high polyreactivity
30 | QVQLVESGGGLVQAGGSLRLSCAASGSIFKVYAMGWYRQAPGKERELVAAISRGGSTYADSVKGRFTISRDNAKNTVYLQMISLKPEDTAVYYCNATVGRIYVTRYDYWGQGTQVTVSS | high polyreactivity
31 | QVQLVESGGGLVQAGGSLRLSCAASGSIFKYNAMGWYRQAPGKEREFVAAISRSGGSTYYADSVKGRFTISRDNAKNTVYLQMNSLKPEDTAVYYCATTSRYSWSDYWGQGTQVTVSS | high polyreactivity
32 | QVQLVESGGGLVQAGGSLRLSCAASGSIFKYYALGWYRQAPGKERELVAAITSGVSTYADSVKGRFTISRDNAKNTVYLQMNSLKPEDTAVYYCAVRVTGPRGDYWGQGTQVTVSS | low polyreactivity
33 | QVQLVESGGGLVQAGGSLRLSCAASGSIFKYYAMGWYRKAPGKERELVAAISYRVGRTYYADSVKGRFTISRDNAKNTVYLQMNSLKPEDTAVYYCNTAYLSGQEYDYWGQGTQVTVSS | high polyreactivity
34 | QVQLVESGGGLVQAGGSLRLSCAASGSIFKYYAMGWYRQAPGKEREFVAAITRSGGSTYYADSVKGRFTISRDNAKNTVYLQMNSLKPEDTAVYYCAARSYARPGGSRFDYWGQGTQVTVSS | high polyreactivity
35 | QVQLVESGGGLVQAGGSLRLSCAASGSIFKYYAMGWYRQAPGKERELVAAISSGGRTNYADSVKGRFTISRDNAKNTVYLQMNSLKPEDTAVYYCAAGWYRKHRQPSGVGGDYWGQGTQVTVSS | high polyreactivity
36 | QVQLVESGGGLVQAGGSLRLSCAASGSIFKYYAMGWYRQAPGKERELVAAISSSGGSTYYADSVKGRFTISRDYAKYTVYCQMNSLKPQDTAVYYCNTPYIWKNYDYWGQGSQVTVSS | high polyreactivity
37 | QVQLVESGGGLVQAGGSLRLSCAASGSIFKYYSMGWYRQAPGKERELVADISRSGGRTYYADSVKGRFTISRDNAKNTVYLQMNSLKPEDTAVYYCAALDTYQYFRILYGTYEYWGQGTQVTVSS | high polyreactivity
38 | QVQLVESGGGLVQAGGSLRLSCAASGSIFKYYTMGWYRQAPGKERELVSGISYRGGSTYYADSVKGRFTISRDNAKNTVYLQMNSLKPEDTAVYYCATGSGFSPRRNTFRYGYWGQGTQVTVSS | high polyreactivity
39 | QVQLVESGGGLVQAGGSLRLSCAASGSIFLAYAMGWDRQAPGKEREFVAAITWSGDSTYYADSVKGRFTISRDNAKNTVYLQMNSLKPEDTAVYYCAADYFGGPSYEFDYWGQGTQVTVSS | low polyreactivity
40 | QVQLVESGGGLVQAGGSLRLSCAASGSIFLAYAMGWYRQAPGKEREFVAAISFSDGSTYYADSVKGRFTISRDNAKNTVYLQMNSLKPEDTAVYYCNKGASPVDYDYWGQGTQVTVSS | low polyreactivity
41 | QVQLVESGGGLVQAGGSLRLSCAASGSIFLGNAMGWYRQAPGKERELVAGITNGDNTNYADSVKGRFTISRDNAKNTDYLQMNSLKPEDTAVYYCATGPYLIYDYWGQGTQVTVSS | low polyreactivity
42 | QVQLVESGGGLVQAGGSLRLSCAASGSIFLGYTMGWYRPAPGKERELVAAISTRGGSTYYADSVKGRFTISRDNAKNTVYLQMNSLKPEDTAVYYCKARSRGRASGYDYWGQGTQVTVSS | high polyreactivity
43 | QVQLVESGGGLVQAGGSLRLSCAASGSIFLHNAMGWYRQAPGKDRELVAAISGTGGRTYYADSVKGRFTISRDNAKNTVYLQMNSLKPEDTAVYYCAKAARTRGGYGYWGQGTQVTVSS | high polyreactivity
